From paper PMC12810918

Experiments:
N=C(N)NCCC[C@H](N)C(=O)O = experiment: purified protein; conditions: 40 mM Hepes pH 7.0, 0-20 mM arginine
[1] = substrate: N=C(N)NCCC[C@H](N)C(=O)O; experiment: colorimetric determination of citrulline formation; format: biochemical, Giardia duodenalis; conditions: 40 mM Hepes pH 7.0, 0-20 mM arginine
Description: colorimetric determination of citrulline formation on ADIB (recombinant ADI, assemblage B, isolate GS) | recombinantly expressed ADIAI, ADIAII and ADIB in bacteria and determined the Km values

Row | Molecule | Km (N=C(N)NCCC[C@H](N)C(=O)O) | Km [1] | kcat [1]
1 | ADIE (recombinant ADI, assemblage E, isolate P15) (Giardia lamblia P15) | 340 ± 30 µM |  | 
2 | ADIB (recombinant ADI, assemblage B, isolate GS) (Giardia duodenalis ATCC 50581) (protein) MTDFTKDKEKLAQATQGGETERAEIVVVHLPQGTSFLTSLNPEGNLLEESMCPDELKRDHEGFQAILKEKGCRVYMPYDVLSEASPAEREVLMDQAMASLKYEFHPSGARITPKMKYCVSDEYKRKVLSALSNRNLVDVILSEPVIHLIPGVRNTALVTKSVEIHDSNNMVFMRDQQITTRRGVVMGQFQAPQRRREQVFALIFWKRLGVRVVGDCREGGPHCMLEGGDFIPASPGLTMMGVGLRSTYVGARYLMSKDLLGTRRFAVVKDCFDQHQDRMHLDCTCSIIHDKLVVLDEYICSGMGLRYVDEWIDIGAEAAKKAKSSAVICGTYALVKANVEFQQWLDENGYTIIRIPHEYQLAYGCNNLNLGNNCVLSVHQPTIDFIKASPAYISYCKSHNLSNGLDLVYVPFRGITRMYGSLHCASQVIYRTPATPATVKACEQEGDGLAAIYEKNGEPVDAAGKNFDCVLYIPSTVDDLVDSLGISLGDDVAPSREIIADVHKLYQKLISEGRVPYITWRMPSMPVVSLKGAARAGSLKAILDKIPQLPSFTPKVVDGAPAAYTRYLGLEQADICIDIS |  | 360 ± 20 µM | 1.99 ± 0.16 s⁻¹
